# From PMC3488048 (The Journal of Biological Chemistry, 2012)
# Where no end group is shown, it is not given here.
# Biological target: Kindlin-3 (full-length, C-terminal His6 tag removed, for NMR) (mouse, UniProt Q8K1B8 1-665)
# Assay: NMR titration
# Sequence of Kindlin-3 (full-length, C-terminal His6 tag removed, for NMR) (Q8K1B8 whole entry): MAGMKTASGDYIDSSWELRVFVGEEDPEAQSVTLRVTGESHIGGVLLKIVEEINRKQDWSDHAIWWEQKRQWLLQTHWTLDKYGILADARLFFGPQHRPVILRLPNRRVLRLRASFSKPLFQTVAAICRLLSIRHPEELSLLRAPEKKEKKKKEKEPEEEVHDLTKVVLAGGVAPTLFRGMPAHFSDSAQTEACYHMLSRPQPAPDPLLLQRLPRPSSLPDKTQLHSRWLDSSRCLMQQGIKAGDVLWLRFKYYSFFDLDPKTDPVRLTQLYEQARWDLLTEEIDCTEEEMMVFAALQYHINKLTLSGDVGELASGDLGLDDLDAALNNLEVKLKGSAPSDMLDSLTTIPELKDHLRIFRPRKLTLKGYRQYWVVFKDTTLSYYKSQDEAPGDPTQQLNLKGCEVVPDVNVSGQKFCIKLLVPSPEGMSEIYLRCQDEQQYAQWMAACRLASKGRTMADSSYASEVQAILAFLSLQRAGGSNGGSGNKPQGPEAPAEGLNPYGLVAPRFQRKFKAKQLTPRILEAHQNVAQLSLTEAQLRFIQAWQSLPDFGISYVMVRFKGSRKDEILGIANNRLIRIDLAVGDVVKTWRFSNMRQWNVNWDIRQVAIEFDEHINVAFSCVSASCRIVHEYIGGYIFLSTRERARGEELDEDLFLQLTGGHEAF
row,Kd,Binder
1,~50 µM,"KLLMIIHDRREFAKFEKEKMNAKWDTGENPIYKSAVTTVVNPKYEGK (domain or fragment, UniProt P05556-1 752-798, looked up, also: uniformly 15N-labelled) [integrin β1A cytoplasmic tail]"
2,~50 µM,"KLLMIIHDRREFAKFEKEKMNAKWDTQENPIYKSPINNFKNPNYGRKAGL (domain or fragment, UniProt P05556-5 752-801, looked up, also: uniformly 15N-labelled) [integrin β1D cytoplasmic tail]"
